# Measurements published in PMC3102678.
# Biological target: F pilus (conjugative pilus encoded by the F′ plasmid) on E. coli TOP10F′ (F+) cells (E. coli (endogenous on TOP10F′, F′ plasmid)) (UniProt P04737)
# Chain of UniProt P04737 (P04737 52-121): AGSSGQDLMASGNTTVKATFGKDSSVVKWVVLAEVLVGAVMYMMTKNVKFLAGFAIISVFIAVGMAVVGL
substance,measurement,value
g3p on replicating phage M13-km^R (from UniProt P69168 19-424) (natural protein),"inhibition of F-mediated conjugation by replicating phage M13-km^R (no pre-infection), binding model applied naively without phage replication and infection: apparent Kd",2.4 pM
